Data: publication PMC10314698

Biological target: soluble BCMA (B-cell maturation antigen) (UniProt Q02223)
Test: SPR

Chain of soluble BCMA (B-cell maturation antigen) (Q02223 1-54): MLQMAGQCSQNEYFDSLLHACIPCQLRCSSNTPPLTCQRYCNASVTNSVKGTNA

- Kd: 2.89 nM
- koff: 0.0162 s⁻¹
Substance: LCAR-B38M (Nanjing_GSI5022_Dual_VHH)
